Reference: patent US20130086703

Biological target: T1, human Keratin 17
T1 chain: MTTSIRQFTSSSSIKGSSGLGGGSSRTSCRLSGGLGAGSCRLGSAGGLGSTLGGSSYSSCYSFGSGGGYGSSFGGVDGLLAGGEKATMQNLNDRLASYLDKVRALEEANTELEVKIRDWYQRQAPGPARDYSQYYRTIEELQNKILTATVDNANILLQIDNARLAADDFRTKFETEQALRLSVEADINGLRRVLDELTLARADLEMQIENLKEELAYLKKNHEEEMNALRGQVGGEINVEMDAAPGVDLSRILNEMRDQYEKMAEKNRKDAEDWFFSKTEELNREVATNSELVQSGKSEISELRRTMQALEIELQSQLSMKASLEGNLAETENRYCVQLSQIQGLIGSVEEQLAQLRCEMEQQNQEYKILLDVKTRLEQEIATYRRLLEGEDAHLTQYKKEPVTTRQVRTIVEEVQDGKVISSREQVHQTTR

B1: RgpB (protein)
chain: YTPVEEKENGRMIVIVPKKYEEDIEDFVDWKNQRGLRTEVKVAEDIASPVTANAIQQFVKQEYEKEGNDLTYVLLVGDHKDIPAKITPGIKSDQVYGQIVGNDHYNEVFIGRFSCESKEDLKTQIDRTIHYERNITTEDKWLGQALCIASAEGGPSADNGESDIQHENIIANLLTQYGYTKIIKCYDPGVTPKNIIDAFNGGISLANYTGHGSETAWGTSHFGTTHVKQLTNSNQLPFIFDVACVNGDFLYNVPCFAEALMRAQKDGKPTGTVAIIASTINQSWASPMRGQDEMNEILCEKHPNNIKRTFGGVTMNGMFAMVEKYKKDGEKMLDTWTVFGDPSLLVRTLVPTKMQVTAPANISASAQTFEVACDYNGAIATLSDDGDMVGTAIVKDGKAIIKLNESIADETNLTLTVVGYNKVTVIKDVKVEG
  enzymatic degradation products detected by mass spectrometry (on spot profiling): peptides consisting of the amino acid sequences shown by SEQ ID NOs: 6-10 (peptides 8-12) were newly identified as RgpB degradation products of human Keratin 17
